Experiment [1] concerns the target a tagged version of TclJ or TclN. The experiment in a line: pull-down; nickel copurification: TclI, TclJ and TclN all co-expressed in E. coli, one of them His6-tagged; lysate on Ni-NTA agarose beads, 4°C, 50 mM HEPES pH 7.8, 300 mM NaCl, 60 mM imidazole; SDS-PAGE with Coomassie stain.
Experiment [2] has as its target N-terminally His-tagged TclI (M. caseolyticus). Nature of the experiment: SEC; purified TclIJN complex (TclI, TclJ and TclN as a mixture); Yarra 1.8 μm X150 column, 100 mM sodium phosphate pH 6.8, 0.023% NaN3, 25 °C, 1 μg/μL.
For experiment [3], the target named is His-tagged TclI N-terminal domain (residues 1-85) (M. caseolyticus).

Consider TclI (untagged) (natural protein), for which the stoichiometry N (TclI per tagged enzyme (densitometry)) in experiment [1] was in the range of 2 to 8. Consider TclN (untagged) (enzyme), for which, in experiment [2], the stoichiometry N (TclI per TclN) stood at 2.

With TclJ (untagged) (enzyme), in experiment [2], the stoichiometry N (TclI per TclJ) came out at 2. As for “GST-TclE Δ18 leader truncation (peptide)”, the percentage of TclE peptides fully modified (six thiazoles) by LC-MS after co-expression of GST-TclE Δ18 with TclI, TclJ and TclN in E. coli in experiment [3] was determined as 71.6%.
